Data as given in the nanobody polyreactivity screen of Harvey et al. (2022).

experiment: yeast display, Sf9 membrane polyspecificity reagent, FACS + sequencing; frameworks hold sequencing errors
How it was run: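 A synthetic nanobody library was expressed on Saccharomyces cerevisiae BJ5465 by galactose induction for 36–48 hours. The library was stained for 1 hour at 4 °C with 10% biotinylated, detergent-solubilized Sf9 membrane reagent and enriched with streptavidin microbeads before FACS. Low and high (top ~1%) gates were set on anti-HA fluorescence for expression and streptavidin fluorescence for reagent binding, and each polyreactivity label reflects the gate of origin.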

| Sequence | polyreactivity (PSR sort gate) |
| --- | --- |
| QVQLVESGGGLVQAGGSLRLSCAASGRTFDRYAMGWARQAPGKERELVATISRSGGSTYYADSVKGRFTISRDNAKNTVYLQMNSLKPEDSAVYYCAARQRTTSDGWRDSWGQGTQVTVSS | high polyreactivity |
| QVQLVESGGGLVQAGGSLRLSCAASGFIFAYYAMGWYRQAPGKERELVAAITNSGGSTYYADSVKGRFTISRDNAKNTVYLQMNSLKPEDTAVYYCNALHRIRYTPSSRYDYWGQGTQVTVSS | low polyreactivity |
| QVQLVESGGGLVQAGGSLRLSCAASGRIFGLNAMGWYRQAPGKETEFVAAITWRGGRTYYADSVKGRFTISRDKANKTVYLQMNSLKPEDTAVYYCAADGGSTLDYFWGQGTQVTVSS | low polyreactivity |
| QVQLVESGGGLVQAGGSLRLICAASGRIFVRNAMGWSRQAPGKERELVAAITSGGRTYYADSVKGRFTISRDNAQNTVYVQMNSLKPEDTAVYYCAARAGNASAIDVAYWGQGSQVTVSS | low polyreactivity |
| QVQLVESGGGLVQAGGSLRLSCAASGSTFTLYAMGWYRQAPGKERELVATITGSGGSTNYADSVKGRFTISRDNAKNTVYLQMNSLKPEDTAVYYCAAYNPFYYKFDYWGQGTQVTVSS | high polyreactivity |
| QVQLVESGGGLVQAGGSLRLSCAASGRTFVSYVMGLYRQAPGKERELVAAITWRGGSTYYADSVKGRFTISRDNAKNTVYLQMNSLKPEDTAVYYCNADYRYIWTYWGWTIYDYWGQGTQVTVSS | high polyreactivity |
| QVQLVESGGGLVQAGGSLRLSCAASGRIFSYNAMGWYRQAPGKERELVAAISYRGGSTYYADSVKGRFTISRDNAKNTVYLQMNSLNPEDTAVYYCNAEAYYPYGYDYWGQGTQVTVSS | low polyreactivity |
| QVQLVESGGGLVQAAGSLRLSCAASGLPSVDAMGWYRQAPGKERELVAAISLTGSSTYYADSVKGRFTISRDNAKNTVYLQRNSLKPEDTAVYYCAADSSYTPNDDNWGQGTQVTVSS | low polyreactivity |
| QVQLVESGGGLVQAGGSLRLSSAASGLIFYWYAMGWYRQAPGKERELVAAISSAGSTNYADSVKGRFTISRDNAKNTVYLQMNSLKPEDTAVYYCAKGGYSPKSVKYYDYWGQGTQVTVSS | low polyreactivity |
| QVQLVESGGGLVQAGGSLRLSCAASGSIFTNNAMGWYRHAPGKERELVAAISRGGSTYYADSVKGRFTISRDIAKNTDFIQMNSLIPEDTAVYYCNARRYRHDGYWGQGTQVTVSS | high polyreactivity |
| QVQLVESGGALVQEGGSHRLSCAASRRIFVVYAMGWYRQAPGKERELVAAISKRRGSTYYADSVKGRFTISRYNAKNTVYLQMKSQKPEDTAVYYCAVEGVIWSFWPYEYWGQGTQVTVSS | high polyreactivity |
| QVQLEESGGGLVQAGGSLRLSCAASGSTFSYYAKGWYRQAPGKERELVAVISRGGSTNYADSVKGRFTISRDNAKNTVYLQMNSLKPEDTAVYYCAADAIPDSVRYWEYDYWGQGTQVTVSS | low polyreactivity |
| QVQLQESGGGLVQAGGSLCLSCAASGTIFFDGDMGWYRQAPCKEREFVAAINPGGSAYYADSVKGRLPLAAITHTVYLQMNSLKPEDTAVYYCAAKLFDVYGYYYWGQGTHVTVSS | low polyreactivity |
| QVQLQESGGGLVQAGGSLRLSCAASGTIFTARFMGWYRQAPGKERELVATITDGGNTNHADSVKGRFTISRDNAKNTVYLHMNSLKPEDAAVYYCAAGEVDNDTLLYWGQGSQVTVSS | low polyreactivity |
| QVQLVESGGGLVQAGGSRRLSCAATGRTFGRYSMGWDRQAPGKERELVAAITTIGGSTYYADSVKGRFTISRDNAKNTVYLQMNSLKTEDTAVYYCAAGWVTNSDGMDYWGQGTQVTVSS | low polyreactivity |
| QVQLVESGGGLVQAGGSLRLSCAASGSIFGYYGMGWYRQAPGKERELVAAISYRGGYTYYADSVKGRFTISRDNAKNTVSLQMNSLKPEDTAVYYCNAGGRRRIFAHSSTGDYWGQGTQVTVSS | high polyreactivity |
| QVQLVESGGGLVQAGGSLRLSCAASGFIFPRYAMGWYRQAPGKERELVAGITSRGTGTYYADSVKGRFTISRDNAKNTVYLQMNSLKPEDTAVYYCARLSTKPLPYDYWGLGTQVTVSS | high polyreactivity |
| QVQLVESGGGLVQAGGSLRLSCAASGLSFRRYAMGWYRQAPGKEREFVATISRRGGSTRYADSVKGRFTISRDNAKNTVYLQMKSLKPEDTAVYYCNKVEYASIAKGYDYWGQGTQVTVSS | high polyreactivity |
| QVQLVESWGGLVQAGGSLRLSCAASGFIMQWYAMGWDRQAPGKERELVAGISSGTSTYYADSVKGRFTISRDNAKNTVYFQMNSLKAEDTAVYYCTWFVFDPEDYWGQGTQVTVSS | low polyreactivity |
| QVQLVESGGGLVQARGSLRLSCAASGFTFGYNAMGWYRKAPGTERELVAVITQSGGRTYYADSVKGRFTISRDNANNSVYLQMNSLKPEDTAVYYCAARYRLAPYYYWGQGTQVTVSS | high polyreactivity |
| QVQLVESGGGLVQAGGSLRLSCAASGRIFGSYVMGWYRQAPGKERELVAAISRGGSTYYADSVKGRFTISRDNAKNTVYLQLNSLTPEDTAVYYCAAYSIYGTSYLYTQAFYYWGQGTQVTVSS | high polyreactivity |

| Sequence | polyreactivity (PSR sort gate) |
| --- | --- |
| QVQLVESGGGLVQAGGSLRLSCAASGSTLPPYVMGRYRQAPGKERELVAAISSSSGSTYYADSVKGRFTISRDNAKNTVYLQRNSLKPEDTAVYYCAAVTGWAREEEYWGQGTQVTVSS | low polyreactivity |
| QVQLVESGGGLVQAGGSLRLSCAASGRIFPYNAMGWYRQAPGKERELVATNTSGRSTYYADSVKGRFTISRDNAKNTVDVPLNSLKPEDTAVYYCAARYPSIYYYRYDYWGQGTQVTVSS | high polyreactivity |
| PVQLVDSGGGLVQAGGSLRLSCAASGSTFQRNVMGWYRQAPGKERELVAAITWRGTSTYYADSVKGRFTISRDNAKNTVYLQMNSLKPEDTAVYYCAAERTRSGYYYDYWGQGTQVTVSS | high polyreactivity |
| QVQLVESAAGLVQAGGSLRLSCADSGSTIYRYAMGWYRQAPGKERELVAAISTTGGSTFYADSVKGRFTISRDNAKNTVYLQMNSLKPEDTAVYYCNAYYRGTYDYWGQGTQVTVSS | high polyreactivity |
| QVQLVESGGGLVQSGGSLRLSCAASGSTFHTYAMGWYRQAPGKERELFASIRTSGGSTNADSVKGRFTISRDNAKNTVYLQMNSLNPEDTAVYYCAAYYFYGLYDAYYYWGQGTEVTVSS | low polyreactivity |
| QVQLVESGGGLVQAGGSLRLSCAASGFTFGHYAMGWDRQAPGKERELVAAISSGDRTYYADSVKGRFTISRDNAKNTVYLQMNSLKPEDTAVYSCNAVYYSWAQSARFDYWGQGTQVTVSS | low polyreactivity |
| QVQVLESGGGLFQAGGRLRLSCAASGRTFRSYAMGWYRQAPGKERELVAAIRRGGSTNYADSVKGRFTISRDNAKNTVYLQMNSEKPEDTAVYYCAARGWSYRSVGYMDYWGQGTQVTVSS | high polyreactivity |
| QVQLVESGGGLVQAGGSLRLSCAASGFIFERYTMGWYRQAPGKERELVAAISDSGGSTYYADSVKGRFTISRDNAKNTVYLQMNSLKPEDTAVYYCAAKFRNYRPSKYYYWGQGTQVTVSS | high polyreactivity |
| QVQLVESGGGLVQAGGSLRLSCAASGSIFKPYAMGWYRQAPGKERELVAAISSSGGSTYYADSVKGRFTISRDNAKNTVYLQMNSLKPEDTAVYYCNADWYYAGYGYWGQGTQVTVSS | low polyreactivity |
| QVQLVESGGGLVQAGGSLRLSCAASGSIFYVYAMGWYRQAPGKERELVATISTGGSTYYADSVKGRFTISRDNAKNTVYLQMNSLKPEDTAVYYCNAQFTPRYRGGYDSWGQCTQVTVSS | low polyreactivity |
| QVQLVESGGGLVQAGGSLRFSCAYSGRTFFGYAMGWYRQAPGKERELVAAITSAGGRTYYADSVKGRYTISRDNAKNTVYLQMNSLKPEYTAVYYCAATRWYYGLSAFDSWGQGTQVTVSS | high polyreactivity |
| QVHLVESGGGLVQSGGSLRLSCAASGRIFYYNAMGWYRQAPGKERELVAAITSSSGSSTYYADSVKGRFTISRDNAKNTVYLQMNSLKPEDTAVYYCAADATFIIRYLSRSDYWGQGTQVTVSS | low polyreactivity |
| QVQLVESGGGLVQAGGSLRLSCAASGRIFYSYAMGCSRQAPGKERELVAAITRGGRTKYADSVKGRFTISRDNEKNTVYLQMNSLKPEDTAVYYCAAVKFYTEYNQYDYWGQGTQVTVSS | high polyreactivity |
| QVQLVESGGGLVQAGGSLRLSCAASGSTLFNYDMGWYRQAPGKERELVAAFDWGDGTTYYADSVKGRFTISRDNAKNTVYLQMNSLKPEDTAVYYCAAEEFYSPYDYWGQGTQVTVSS | high polyreactivity |
| QVQLVESGGGLVQAGGSLRLSCAASGFTFPGYAMGWYRQAPGKERELVAAISYSSGSTYYADSVKGRFTISRDNAKNTVYLQMNSLKPEDTAVYYCNRVYRFRGITELDYWGQGTQVTVSS | high polyreactivity |
| QVQLVESGGGLVQAGGSLRLSFAASGFIFYRYVMGWYRQAPGKERELVAAITWSGGSTYYADSVKGRFTISRDNAKNTVYLQMNSLKPEDTAVYYCNAESNLYFRYDYWGQGTQVTVSS | low polyreactivity |
| QVQLVESGGGLVQAGGSLRLTCAASGNTFGNYAMGWYRQAPGKERELVASISWNVGSTYYADSVKGRFTISRDNAKNTVYLQMNSLKPEDTAVYYCARGYDRPRVATFHRFDYWGQGTQVTVSS | low polyreactivity |
| QFQLVESGGGLVQAGGSLRLSCAASGRTFGGYAMGWYRQAAGKVREFVAALTYRGASTYYSDSVKGRFTISRDNAKNTVYFQMNSLKPEDTAVYYCAAEGSIKYFVGYTWGYNYWGQGTQVTVSS | low polyreactivity |
| QVQLVESGGGLFQAGGSLRLSCAASGSIFWSYAMGWYRQAPGKERELVAAISSGGSTNYADSVKGRFTISRDNAKNTVYLQMNSLKPEDTAVYYCNAVGAKGYVKGFDYWGQGTQVTVSS | low polyreactivity |
| QVQLVESGGGSVQAGGRLRLSCAASGLIFAGYARGWYRQSPGKERELVAASSTSGGRTYYADSVKGRFTISRDNAKNTVYLQINSLTPEDTAVYYCAAYPVHGKTQELAKEDYWGQGTQVTVSS | high polyreactivity |
